One molecule from PMC2880568 can be followed below.

For the assay, the target named is T1, EloBC (elongin B - elongin C heterodimer), Q15370.
T1 chain 1: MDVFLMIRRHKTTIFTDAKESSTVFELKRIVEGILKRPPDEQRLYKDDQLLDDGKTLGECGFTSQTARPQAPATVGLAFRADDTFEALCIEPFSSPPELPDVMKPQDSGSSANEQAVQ
T1 chain 2: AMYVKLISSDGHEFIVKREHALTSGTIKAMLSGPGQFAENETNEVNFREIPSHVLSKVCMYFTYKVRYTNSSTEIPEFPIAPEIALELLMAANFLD
Kind of assay: ITC.

Consider HNKVGSLQYLALAAL (domain or fragment, modifications not checked) [Vif BC-box protein], for which the Kd was determined as 2200 nM.
